Each block holds one binder with its values, some of them ahead of it.
Molecular target: T1, human IL-2 receptor (IL-2Rα/IL-2Rβ/γc) (human, UniProt P01589 22-272; P14784 27-551; P31785 23-369)
T1 sequence 1: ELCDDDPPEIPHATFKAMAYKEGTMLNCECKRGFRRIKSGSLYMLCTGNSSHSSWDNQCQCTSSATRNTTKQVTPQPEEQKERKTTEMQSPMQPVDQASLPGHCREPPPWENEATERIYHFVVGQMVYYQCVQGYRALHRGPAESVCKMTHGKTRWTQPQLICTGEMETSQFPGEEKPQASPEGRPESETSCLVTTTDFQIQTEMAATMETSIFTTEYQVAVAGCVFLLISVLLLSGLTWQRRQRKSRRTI
T1 sequence 2: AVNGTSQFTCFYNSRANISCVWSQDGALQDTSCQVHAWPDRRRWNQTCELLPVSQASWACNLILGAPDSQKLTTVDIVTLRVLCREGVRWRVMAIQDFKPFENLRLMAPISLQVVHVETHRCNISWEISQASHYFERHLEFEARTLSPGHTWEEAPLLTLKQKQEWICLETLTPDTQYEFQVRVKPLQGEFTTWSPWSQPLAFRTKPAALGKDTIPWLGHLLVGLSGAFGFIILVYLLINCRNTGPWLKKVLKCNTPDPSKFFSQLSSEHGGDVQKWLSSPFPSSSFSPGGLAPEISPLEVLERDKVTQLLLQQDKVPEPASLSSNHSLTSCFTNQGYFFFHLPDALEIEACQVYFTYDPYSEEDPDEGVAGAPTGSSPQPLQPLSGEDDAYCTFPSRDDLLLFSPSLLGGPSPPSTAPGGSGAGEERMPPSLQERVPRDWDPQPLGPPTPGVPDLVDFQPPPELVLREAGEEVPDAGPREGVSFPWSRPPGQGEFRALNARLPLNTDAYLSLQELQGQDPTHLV
T1 sequence 3: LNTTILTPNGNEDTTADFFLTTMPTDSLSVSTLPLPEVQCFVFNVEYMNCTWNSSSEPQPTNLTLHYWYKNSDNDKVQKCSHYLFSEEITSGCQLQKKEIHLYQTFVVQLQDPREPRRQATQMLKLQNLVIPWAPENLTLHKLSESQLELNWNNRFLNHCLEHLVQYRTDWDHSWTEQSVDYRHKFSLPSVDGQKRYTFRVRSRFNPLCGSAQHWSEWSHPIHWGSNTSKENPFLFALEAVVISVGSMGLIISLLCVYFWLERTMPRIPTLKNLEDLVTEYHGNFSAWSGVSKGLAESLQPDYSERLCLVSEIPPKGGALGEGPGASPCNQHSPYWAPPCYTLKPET
Assay: cell-based or functional assay

B4: DC00040 (other)
chain 1: QVQLVESGGGLVQPGGSLRLSCATSGFTFRNNFMSWVRQAPGKGLEWVSTISYGGESTTYAESVKGRFTISRDNAKNTLYLQMNNLKPEDTAVYYCAKATSYDSIRSGSRGQGTQVTVSSDKTHTCPPCPAPEAAGGPSVFLFPPKPKDTLMISRTPEVTCVVVDVSHEDPEVKFNWYVDGVEVHNAKTKPREEQYNSTYRVVSVLTVLHQDWLNGKEYKCKVSNKALGAPIEKTISKAKGQPREPQVYTLPPSRDELTKNQVSLTCLVKGFYPSDIAVEWESNGQPENNYKTTPPVLDSDGSFLLYSKLTVDKSRWQQGNVFSCSVMHEALHNHYTQKSLSLSPGK
chain 2: EVQLVESGGGLVQTGGSLRLSCAASGGTFSRDAMAWFRQVPGKEREFVALISWSGATTNYADSVKGRFAISRDNGKNTVYLQMNRLKPADTAIYYCAADRRPMGSRSYFEPTEYDDWGQGTQVTVSSGGGGSGGGGSGGGGSQVQLVESGGGLVQAGGSLTLSCAAPGRTFGTDVVGWFRQAPGKEREFVASISRSGDGIYYDDSVKGRFTISRNNAWNTVNLQMNSLKVEDTAVYYCAAGDGWSTYDYWGQGTQVTVSSGGGGSGGGGSGGGGSDKTHTCPPCPAPEAAGGPSVFLFPPKPKDTLMISRTPEVTCVVVDVSHEDPEVKFNWYVDGVEVHNAKTKPREEQYNSTYRVVSVLTVLHQDWLNGKEYKCKVSNKALGAPIEKTISKAKGQPREPQVYTLPPSRDELTKNQVSLTCLVKGFYPSDIAVEWESNGQPENNYKTTPPVLDSDGSFFLYSRLTVDKSRWQQGNVFSCSVMHEALHNHYTQKSLSLSPGK
EC50 (nM) pSTAT5, NK, human PBMCs: 0.701 nM
EC50 (nM) pSTAT5, Treg, human PBMCs: 0.0158 nM
Fold Max signal (% pSTAT5+) Treg/NK: 10 fold
Max signal (% pSTAT5+), NK: 4 % pSTAT5+
Max signal (% pSTAT5+), Treg: 43 % pSTAT5+
fold EC50 NK/Treg: 44 fold

B5: DC00070 (other)
chain 1: EVQLVESGGGLVQTGGSLRLSCAASGGTFSRDAMAWFRQVPGKEREFVALISWSGATTNYADSVKGRFAISRDNGKNTVYLQMNRLKPADTAIYYCAADRRPMGSRSYFEPTEYDDWGQGTQVTVSSGGGGSGGGGSGGGGSQVQLVESGGGLVQPGGSLRLSCATSGFTFRNNFMSWVRQAPGKGLEWVSTISYGGESTTYAESVKGRFTISRDNAKNTLYLQMNNLKPEDTAVYYCAKATSYDSIRSGSRGQGTQVTVSSDKTHTCPPCPAPEAAGGPSVFLFPPKPKDTLMISRTPEVTCVVVDVSHEDPEVKFNWYVDGVEVHNAKTKPREEQYNSTYRVVSVLTVLHQDWLNGKEYKCKVSNKALGAPIEKTISKAKGQPREPQVYTLPPSRDELTKNQVSLTCLVKGFYPSDIAVEWESNGQPENNYKTTPPVLDSDGSFLLYSKLTVDKSRWQQGNVFSCSVMHEALHNHYTQKSLSLSPGK
chain 2: QVQLVESGGGLVQAGGSLTLSCAAPGRTFGTDVVGWFRQAPGKEREFVASISRSGDGIYYDDSVKGRFTISRNNAWNTVNLQMNSLKVEDTAVYYCAAGDGWSTYDYWGQGTQVTVSSGGGGSGGGGSGGGGSQVQLVESGGGLVQPGGSLRLSCATSGFTFRNNFMSWVRQAPGKGLEWVSTISYGGESTTYAESVKGRFTISRDNAKNTLYLQMNNLKPEDTAVYYCAKATSYDSIRSGSRGQGTQVTVSSDKTHTCPPCPAPEAAGGPSVFLFPPKPKDTLMISRTPEVTCVVVDVSHEDPEVKFNWYVDGVEVHNAKTKPREEQYNSTYRVVSVLTVLHQDWLNGKEYKCKVSNKALGAPIEKTISKAKGQPREPQVYTLPPSRDELTKNQVSLTCLVKGFYPSDIAVEWESNGQPENNYKTTPPVLDSDGSFFLYSRLTVDKSRWQQGNVFSCSVMHEALHNHYTQKSLSLSPGK
EC50 (nM) pSTAT5, NK, human PBMCs: 0.0538 nM
EC50 (nM) pSTAT5, Treg, human PBMCs: 0.497 pM
Fold Max signal (% pSTAT5+) Treg/NK: 7 fold
Max signal (% pSTAT5+), NK: 11 % pSTAT5+
Max signal (% pSTAT5+), Treg: 80 % pSTAT5+
fold EC50 NK/Treg: 108 fold

Next, values leading:

EC50 (nM) pSTAT5, NK, human PBMCs: 0.0315 nM
EC50 (nM) pSTAT5, Treg, human PBMCs: 0.761 pM
Fold Max signal (% pSTAT5+) Treg/NK: 11 fold
Max signal (% pSTAT5+), NK: 4 % pSTAT5+
Max signal (% pSTAT5+), Treg: 46 % pSTAT5+
fold EC50 NK/Treg: 41 fold
B1: DC00039 (other)
chain 1: B4 chain 1
chain 2: EVQLVESGGGLVQTGGSLRLSCAASGGTFSRDAMAWFRQVPGKEREFVALISWSGATTNYADSVKGRFAISRDNGKNTVYLQMNRLKPADTAIYYCAADRRPMGSRSYFEPTEYDDWGQGTQVTVSSGGGGSGGGGSGGGGSQVQLVESGGGLVQPGGSLRLSCATSGFTFRNNFMSWVRQAPGKGLEWVSTISYGGESTTYAESVKGRFTISRDNAKNTLYLQMNNLKPEDTAVYYCAKATSYDSIRSGSRGQGTQVTVSSGGGGSGGGGSGGGGSQVQLVESGGGLVQAGGSLTLSCAAPGRTFGTDVVGWFRQAPGKEREFVASISRSGDGIYYDDSVKGRFTISRNNAWNTVNLQMNSLKVEDTAVYYCAAGDGWSTYDYWGQGTQVTVSSGGGGSGGGGSGGGGSDKTHTCPPCPAPEAAGGPSVFLFPPKPKDTLMISRTPEVTCVVVDVSHEDPEVKFNWYVDGVEVHNAKTKPREEQYNSTYRVVSVLTVLHQDWLNGKEYKCKVSNKALGAPIEKTISKAKGQPREPQVYTLPPSRDELTKNQVSLTCLVKGFYPSDIAVEWESNGQPENNYKTTPPVLDSDGSFFLYSRLTVDKSRWQQGNVFSCSVMHEALHNHYTQKSLSLSPGK

EC50 (nM) pSTAT5, NK, human PBMCs: 0.763 nM
EC50 (nM) pSTAT5, Treg, human PBMCs: 0.106 pM
Fold Max signal (% pSTAT5+) Treg/NK: 5 fold
Max signal (% pSTAT5+), NK: 21 % pSTAT5+
Max signal (% pSTAT5+), Treg: 94 % pSTAT5+
fold EC50 NK/Treg: 7210 fold
B2: DC00042 (other)
chain 1: B4 chain 1
chain 2: QVQLVESGGGLVQAGGSLTLSCAAPGRTFGTDVVGWFRQAPGKEREFVASISRSGDGIYYDDSVKGRFTISRNNAWNTVNLQMNSLKVEDTAVYYCAAGDGWSTYDYWGQGTQVTVSSGGGGSGGGGSGGGGSEVQLVESGGGLVQTGGSLRLSCAASGGTFSRDAMAWFRQVPGKEREFVALISWSGATTNYADSVKGRFAISRDNGKNTVYLQMNRLKPADTAIYYCAADRRPMGSRSYFEPTEYDDWGQGTQVTVSSGGGGSGGGGSGGGGSDKTHTCPPCPAPEAAGGPSVFLFPPKPKDTLMISRTPEVTCVVVDVSHEDPEVKFNWYVDGVEVHNAKTKPREEQYNSTYRVVSVLTVLHQDWLNGKEYKCKVSNKALGAPIEKTISKAKGQPREPQVYTLPPSRDELTKNQVSLTCLVKGFYPSDIAVEWESNGQPENNYKTTPPVLDSDGSFFLYSRLTVDKSRWQQGNVFSCSVMHEALHNHYTQKSLSLSPGK

EC50 (nM) pSTAT5, NK, human PBMCs: 0.15 nM
EC50 (nM) pSTAT5, Treg, human PBMCs: < 0.1 pM
Fold Max signal (% pSTAT5+) Treg/NK: 5 fold
Max signal (% pSTAT5+), NK: 17 % pSTAT5+
Max signal (% pSTAT5+), Treg: 94 % pSTAT5+
fold EC50 NK/Treg: > 1500 fold
B3: DC00041 (other)
chain 1: B4 chain 1
chain 2: QVQLVESGGGLVQPGGSLRLSCATSGFTFRNNFMSWVRQAPGKGLEWVSTISYGGESTTYAESVKGRFTISRDNAKNTLYLQMNNLKPEDTAVYYCAKATSYDSIRSGSRGQGTQVTVSSGGGGSGGGGSGGGGSQVQLVESGGGLVQAGGSLTLSCAAPGRTFGTDVVGWFRQAPGKEREFVASISRSGDGIYYDDSVKGRFTISRNNAWNTVNLQMNSLKVEDTAVYYCAAGDGWSTYDYWGQGTQVTVSSGGGGSGGGGSGGGGSEVQLVESGGGLVQTGGSLRLSCAASGGTFSRDAMAWFRQVPGKEREFVALISWSGATTNYADSVKGRFAISRDNGKNTVYLQMNRLKPADTAIYYCAADRRPMGSRSYFEPTEYDDWGQGTQVTVSSGGGGSGGGGSGGGGSDKTHTCPPCPAPEAAGGPSVFLFPPKPKDTLMISRTPEVTCVVVDVSHEDPEVKFNWYVDGVEVHNAKTKPREEQYNSTYRVVSVLTVLHQDWLNGKEYKCKVSNKALGAPIEKTISKAKGQPREPQVYTLPPSRDELTKNQVSLTCLVKGFYPSDIAVEWESNGQPENNYKTTPPVLDSDGSFFLYSRLTVDKSRWQQGNVFSCSVMHEALHNHYTQKSLSLSPGK

Reference: patent publication US20240409645A1 (DUALYX, published 2024)
